Measured values from the nanobody polyreactivity screen of Harvey et al. (2022).

Experiment: yeast display, Sf9 membrane polyspecificity reagent, FACS + sequencing; frameworks hold sequencing errors
Summary of the method: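 Nanobodies from a synthetic yeast display library (Saccharomyces cerevisiae BJ5465), induced 36–48 hours with galactose, were stained 1 hour at 4 °C with 10% biotinylated, detergent-solubilized Sf9 membrane reagent, enriched on streptavidin microbeads, then FACS-sorted. Anti-HA (expression) and streptavidin (reagent binding) fluorescence set low and high (top ~1%) gates. Polyreactivity labels come from the gate of origin. Genes were colony-PCR amplified, MiSeq 2 × 250 sequenced and filtered by CDR length.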
In the case of “QVQLVESRGGLVQAGGSLRLSCAASGSIFSFYAMGWYRQAPGKERELVATITSGGSTYYADSVKGRFSISRDNAKNTVYLQMNSLKPEDTAVYYCAARGNFGANPGRKHGFDYWGQGTQVTVSS”, the “polyreactivity (PSR sort gate)” value was “high polyreactivity”. With “QVQLVESGGGLVQAGGSLRLSCAASGRIFSGYAMGWYRQATGKERELVAAITSVGSTNYADSVKGRFTISRDNAKNTVYLQMNSLKPEDTAVYYCAARSQIYYRYRSYGYWGQGTQVTVSS” the “polyreactivity (PSR sort gate)” value was “high polyreactivity”. In the case of “QVQLQESGGGLVQAGGDLRLSCAASGNIFRDYIMGWYRQAPGKEREFVAGIDRGANTNYADSVKGRFTISRDNAKNTVYLQMNSLKPEDTAVYYCAVHTAIVPDFIYWGQGSQVTVSS”, the “polyreactivity (PSR sort gate)” value was “low polyreactivity”. With “QVQLVESGGGLVQAGGSLRLSCAASGILLFNAMGWYRQAHGKERELVAAINSGGSTNYADSVKGRFPISRDNAKNTGYLQMNSLKPEDTAVYYCAKDTPFTLRVWAEGGMDYWGQGTQVTVSS” the “polyreactivity (PSR sort gate)” value was “low polyreactivity”. With “QVQLVESGGGLVQAGGSLRLSCAASGRIFDFNAMGWYRQAPGKEREFVAAIRTSGGDSTYYADSVKGRFTISRDNAKTTVYLQMNSLTPEDTAVYYCAKTVWWYYRYPFDYWGQGTQVTVSS” the “polyreactivity (PSR sort gate)” value was “low polyreactivity”. In the case of “QVQLVESGGGLVQAGGSLRLSCAASGGTFYPYAMGWYRQAPGKERELVAAISRGGGSTSYADSVKGRFTISRDNAQNTVYLQMNSLKPEDTAVYYSNAYTYYHANHEQGFGYWGQGTQVTVSS”, the “polyreactivity (PSR sort gate)” value was “low polyreactivity”. With “QVQLVESGGGLVQAGGSLRLRCAASGIIFYRNVMGWYRQAPGKERELVAAISGRGGSTYYADSVKGRFTISRDNAKNTVYLQMNILKPEETAVYYCATDTRTWRFTRGAWYTYGSDYWGQGTQVTVSS” the “polyreactivity (PSR sort gate)” value was “high polyreactivity”. With “QVQLVESGGGLVQAGGSLRLSCAASGSIFVRNAMGWYRQAPGKERELVAGISASGGSTYYADSVKGRFTISRDNAKNTVYLQMNSLKPEDTAVYYCANKVSTRFARYRYDYWGQGTQVTVSS” the “polyreactivity (PSR sort gate)” value was “high polyreactivity”. In the case of “QVQLVESGGGLVQAGGSLRLSCAASGRIFFYNVMGWYRQAPGKERELVAAITTIGGSTYYADSVKGRFTISRDNAKNTVYLQMNSLKPEDTAVYYCAAGWVTNSDGMDYWGQGTQVTVSS”, the “polyreactivity (PSR sort gate)” value was “low polyreactivity”. In the case of “QVQLVESGGGLVQAGGSLRLSCAASGFTFHSYAMGWYRQAPGKERELVAAISGRGGSTYYADSVKGRFTISRDNAKNTVYLQMNSLKPEDTAVYYCARYGYHDYGYWGQCTQVTVSS”, the “polyreactivity (PSR sort gate)” value was “high polyreactivity”. For “QVQLVESGGRLVQAGGSLRLSCAASGRIFVRNAKGWYRQAPGKERELVADITNGGSTNYADSVKGRFTISRDNAKNTVYLQMNSLKPEDTAVVYWAADTLGVYDGDYWGQGTQVTVSS”, the “polyreactivity (PSR sort gate)” value was “low polyreactivity”. For “QVQLVESGGGLVQAGGSLRLSCAASGSIFYINAMGWYRQAPGKERELVAAITSGGTYYADSVKGRFTISRDTAKNTVYLQMNSLKPEDTAVYYCAADREGTPLFDYWGQGTQVTVSS”, the “polyreactivity (PSR sort gate)” value was “low polyreactivity”. In the case of “QVQLVESGGGLVQAGGSLRLSCAASGSTFRFNAMGWYRQAPGKERELVAVIRWRGGTTYYADSVKGRFTISRDNAKNTVYLQMKSLKPEDTAVYYCNADYWGQGTQVTVSS”, the “polyreactivity (PSR sort gate)” value was “high polyreactivity”. In the case of “QVQLVESGGGLVQAGGSLRLSCAASGFTFGVYAMGWYRQAPGKERELVAAISTTVGSTYYADSVKGRFTISRDNAKNTVYLQMNSLKPEDTAVYYCNADGYPDVGAGTYGYWGQGTQVTVSS”, the “polyreactivity (PSR sort gate)” value was “low polyreactivity”. In the case of “QVQLVESGGGLVQAGGSLRLSCAASGRIFRENAMGWYRQAPGKERELVASNSLSGTSTYYADSVKGRFTISRDNAKNTVYLQMNSLKPEDTAVYYCNGERLSTDPYDRNYWGQGTQVTVSS”, the “polyreactivity (PSR sort gate)” value was “low polyreactivity”. For “QVQLVESGGGLVQAGGSLRLSCADSGLIFQYYVMVWYRQAQGKERELVAAISARGGGTYYADSVKGRFTISRDNAKNTVYLPMNSLKPEVTAVYYCAAHQVYAGPGYDYWGQGTQVTVSS”, the “polyreactivity (PSR sort gate)” value was “high polyreactivity”. For “QVQLVESGGGLVQAGGSLRLSCAASGRIFWTNAMGWYRQAPGKERELVAAISYNGASTFYADSVKGRFTISRDNAKNTVYLQMNSLKPEDTAVYYCNAYSSRYRYNYWGQGTQVTVSS”, the “polyreactivity (PSR sort gate)” value was “high polyreactivity”. In the case of “QVQLVDSGGGLVQAGGSLRLSCAASGRIFLYNGMGWYRQAPGKERELVAGIITGGNTNYADSVKGRFTISRDNAKNTVYLQMNSLKPEDTAVYYCAAEVIVYGWSPDYDYWGQGTQVTLSS”, the “polyreactivity (PSR sort gate)” value was “low polyreactivity”. For “QVQLVESGGGLVQAGGSLRLSCAASGRTFRNYAMGWYRPAPGKERELDAGITDSGGSTFYADSVKGRFTISRDNAKNTVYLQMNSLKPADTAVYYCAAVYVPYYWLGRSRGLDYWGQGTQVTVSS”, the “polyreactivity (PSR sort gate)” value was “high polyreactivity”. In the case of “QVQLVESGGGLVQAGGSLRLSCAASGFIFGFYAMGWYRQAPWKERELVAAITSDGGTYYADSVKGRFTISRDNAKNTVYLQMNSLKPEDTAVYYCAADVLYEVFSWYVGYDYWGQGTQVTVSS”, the “polyreactivity (PSR sort gate)” value was “low polyreactivity”. With “QVQLVESGGGLVQAGGSLRLSCSASGFTYDYYAMGWYRQAPGKERELVATISVSAVSTSYADSVKGRFTISRDNAKNTVYLQMNSLKPEDTAVYYCAASRGPYYYHYSGSLKSFDYWGQGTQVTVSS” the “polyreactivity (PSR sort gate)” value was “low polyreactivity”. With “QVQLHESVGRLVQEGGGLRVSCAASGSISSTGFMGWSRQAPGKEGEPVAAIAPGTTTYYADSVKGRFTISRDNAKNTVYLQMNCLRPEDTAVYYCAVYTDNRVAFLYWGQGTQVTVSS” the “polyreactivity (PSR sort gate)” value was “low polyreactivity”. In the case of “QVQLVESGGGLVQAGGSLRLSCAASGFTFPSYAMGWYRQAPGKERELGAVISRRGGSTYYADSVKGRFTISRDNAKNTVYLQLNSLKPEDTAVYYCARPRQPGSLYGYWGQGTQVTVSS”, the “polyreactivity (PSR sort gate)” value was “high polyreactivity”. In the case of “QVQLVESGGVLVQARGILRLICAASGSTFSFNDMGWYRQAPGKERELVAAISRGDNTYYADSVKGRFTISRDNAKNTVYLQMNSLKPDDTSVYYCAADYTYGPPYGYNYWGQGTQVTVSS”, the “polyreactivity (PSR sort gate)” value was “low polyreactivity”. In the case of “QVQLVESGGGLVQAGGSLRLSCAASGSTFRYNAMGWYRQAPGKERELVAAITSGGGTNYADSVKGRFTISRDNAKNTVYLQMNSLKPEDTAVYYCAAGAWRGPYSGYYYWGQGTQVTVSS”, the “polyreactivity (PSR sort gate)” value was “low polyreactivity”. For “QVQLVESGGGLVQAGGRLRLSCAASGLTFPRNAMGWYRQAPGKERELVAAISWRGSSTYYADSVKGRFTISRDNAKNTVFLQMNSLQPEDTAVYYCAASYAGGQHDYWGQGTQVTVSS”, the “polyreactivity (PSR sort gate)” value was “high polyreactivity”. In the case of “QVQLVESGGGLVQAGGSLRLSCAASGFTFSEYVMGWYRQAPGKERELVAVITSGSSTYYADSVKGRFTISRDNAKNTVYLQMNSLTPEDTAVYYCAAESYFFSPRTREKFDYWGQGTQVTVSA”, the “polyreactivity (PSR sort gate)” value was “low polyreactivity”. For “QVQLVESGGGLVQAGRSLRLSSAASGNTFAGNAMGWYRQAPGKERELVAAISWSGTRTYYADSVKGRFTISRDNAKNTVYLQMNSLKPEDTAVYYCAKLSTNKEYYWGQGTQVTVSS”, the “polyreactivity (PSR sort gate)” value was “high polyreactivity”. In the case of “QVQLEESAGGLVQAGGSLRLSCAASGFTLYYYSMGWYRKAPGKERELVAAIAVSGTSTYYADSVKGRFTISRDNAKNTVYLQMNSLKPEDTAVYYCNKVFRVYQTFKAWGRDYWGQGTQVTVSS”, the “polyreactivity (PSR sort gate)” value was “high polyreactivity”. In the case of “QVQLVESWGGLVQAGGSLRLSCAASGFIMQWYAMGWDRQAPGKERELVAGISSGTSTYYADSVKGRFTISRDNAKNTVYFQMNSLKAEDTAVYYCTWFVFDPEDYWGQGTQVTVSS”, the “polyreactivity (PSR sort gate)” value was “low polyreactivity”. With “QVQLVESGGGLVQAGGSLRLSCAASGFTFRWYAMGWYRQAPGKERELVAAITYRGGRTYYADSVKGRFTISRDNAKNTVYLQMNSLKPEDTAVYYCAAKLSLNGRYDYWGQGTQVNVSS” the “polyreactivity (PSR sort gate)” value was “high polyreactivity”. With “PVQLVESGGVLVQAGGSLRVSCAASGSILLIYSMGWSIQAPGKERELVAGINWSGSRAYYADSVKGRFTISRDNAQNTVYLQMNSLKPEDTAVYYCAARGRRPLYSAYDSWGQGTQVTVSS” the “polyreactivity (PSR sort gate)” value was “low polyreactivity”. In the case of “QVQLVESGGGLDQAGGSLRLSCAASGRIFLVYVMGWYRQAPGKERELVAAISASDGSTYYADSVKGRFTISRDNANNTVYLQMNSLKPEDTAVDYCAEWGYSLDSNSYRELNYWGQGTQVNVSS”, the “polyreactivity (PSR sort gate)” value was “low polyreactivity”. With “QVQIVESRGGLVQAGGSLRLSCAASGSNLHYYTMGWYRQAPGNEREFVAGISWSGGRTYYADSVKGRFTISRDNAKNTVYFQMNSRKPEDTAVYYCNRQARRGFHRYHLYGYGYWGQGTQVTVSS” the “polyreactivity (PSR sort gate)” value was “high polyreactivity”. In the case of “QVQLVESGGGLVQAGGSLRVSCAASGLTFKYNALGWYIQAPGKERELVASISSGSTNYADSVKGRFTISRDNAKNSVYLEMNSLKPEDTSVYYCAASVSRGKRFRYGYVFKMDYWGQGTQLTVSS”, the “polyreactivity (PSR sort gate)” value was “low polyreactivity”. With “QVQLVDSGGGLVQAGGILRLSCPASGLIIRKNAMGWYRQAPGKERELVAAISYNGASTYYADSVKGRFTISRDNAKNTVYLQMNSLKPEDTAVYYCAAYAGYSDQARYYYWGQGTQVTVSS” the “polyreactivity (PSR sort gate)” value was “high polyreactivity”. In the case of “QVQLVESGGGLVQAGGSLRLSCAASGITIYGYAMGWYRQAPGKERELVAAISFRSGSTYYADSVKGRFTISRDNAKNTVYLQMNSLKPEDTAVYYCATDRYYRDDYWGQGTQVTVSS”, the “polyreactivity (PSR sort gate)” value was “low polyreactivity”. With “QVQLVESGGGLVQAGGSLRLSCAASGSIYNKNAMGWNRQAPGKERELVAAINQSGGGTYYADSVKGRFTISRDNAKNTVYLQMNSLKPEDTAVYYCAAQVWAGIRYYHMYYWGQGTQVTVSS” the “polyreactivity (PSR sort gate)” value was “low polyreactivity”. With “QVQLVESGGGLVQAGGSLRLSCAASGRTFFVYAMGWYRQAPGKERELVASITLSRGSTYYADSVKGRFTISRDNAKNTCYLQMNSLKPEDTAVYYCSKGWSRDNDREREDEYWGQGTQVTVSS” the “polyreactivity (PSR sort gate)” value was “low polyreactivity”. In the case of “QVQLVESGGGLVQAGGSLRLSCAASGRTFQGNTMGWYRQAPGKERELVAAITWRGTTTYYADSVKGRFTISRDNAKNTVYVQMNSLKPEDTAVYYCAAGHALHSGDEFGYWGQGTQVTVSS”, the “polyreactivity (PSR sort gate)” value was “low polyreactivity”. With “QVQLVESGGGLVQAGGSLRLSCAASGYTFEYYAMGWYRQAPGKERELVAAISWSGGDTYYADSVKGRFTISRDNAKNTVYLQMNSLNPEDTAVYYCAAVRYYRRRTGSYYHYDYWGQGTQVTVSS” the “polyreactivity (PSR sort gate)” value was “low polyreactivity”. For “QVQLVESGGGLVQAGGSLRLSCAASGLILYYYDMGWYRQAPGKERELVAAISWNGDDTYYADSVKGRFTISRDNAKNTVYLQMNSLKPEDTAVYYCAAEGPPQTDDYWGQGTQVTVSS”, the “polyreactivity (PSR sort gate)” value was “high polyreactivity”. In the case of “QVQLVESGGGLVQAGGSLRLSCAASGRIFEINTMGWYRQAPGKERELVAAISRGGGSTYYADSVKGRFTISRDNAKNTVYLQMNSLKPEDTAVYYCAAASYYVEGDYWGQGTQVTVSS”, the “polyreactivity (PSR sort gate)” value was “low polyreactivity”.
